Data reported in PMC3466315, “Influence of PAS Domain Flanking Regions on Oligomerisation and Redox Signalling By NifL” (PLoS ONE, 2012).

Columns and labels:
[1] = biological target: the molecule itself; assay: SEC; Superose 12 10/300 GL, 0.5 ml/min, 50 mM Tris-HCl, 10% v/v glycerol, 200 mM NaCl, pH 8.0; protein at 106 µM (in monomeric terms); 1-140 constructs; self-association
[2] = biological target: the molecule itself; assay: SEC; Superose 12 10/300 GL, 0.5 ml/min, 50 mM Tris-HCl, 10% v/v glycerol, 200 mM NaCl, pH 8.0; 1-162 constructs at five different protein concentrations; self-association, dimer-tetramer equilibrium
[3] = biological target: the molecule itself; assay: SEC; Superose 12 10/300 GL, 0.5 ml/min, 50 mM Tris-HCl, 10% v/v glycerol, 200 mM NaCl, pH 8.0; 1-162 constructs at the highest injected concentration, 424 µM; self-association
[4] = biological target: the molecule itself; assay: SEC; Superose 12 10/300 GL, 0.5 ml/min, 50 mM Tris-HCl, 10% v/v glycerol, 200 mM NaCl, pH 8.0; 1-162 constructs of Table S1, protein concentration not given; self-association

B1: NifL PAS1 domain construct, residues 1-140 (domain or fragment, Azotobacter vinelandii, UniProt P30663 1-140, looked up)
chain: MTPANPTLSNEPQAPHAESDELLPEIFRQTVEHAPIAISITDLKANILYANRAFRTITGYGSEEVLGKNESILSNGTTPRLVYQALWGRLAQKKPWSGVLVNRRKDKTLYLAELTVAPVLNEAGETIYYLGMHRDTSELH
notes: NifL, Azotobacter vinelandii, residues 1-140 (PAS1 domain with the N-terminal flanking region, without the C-terminal linker helix); PAS1 carries an FAD cofactor; also called NifL(1-140); 1-140 PAS1 domain construct; source: E. coli BL21(DE3)pLysS, purified; not shown: hexa-histidine-containing tag (26 additional residues, from the vector pETNdeM-11), N-terminal, kept
stoichiometry N [1]: ~4

B2: NifL(1-162) ΔL151 (domain or fragment, Azotobacter vinelandii, UniProt P30663 1-162, looked up)
chain: MTPANPTLSNEPQAPHAESDELLPEIFRQTVEHAPIAISITDLKANILYANRAFRTITGYGSEEVLGKNESILSNGTTPRLVYQALWGRLAQKKPWSGVLVNRRKDKTLYLAELTVAPVLNEAGETIYYLGMHRDTSELHELEQRVNNQRMIEAVVNAAPA
notes: NifL, Azotobacter vinelandii, residues 1-162 with L151 of the linker helix deleted; source: E. coli BL21(DE3)pLysS, purified
binding result [2]: binds

B3: NifL(1-162) ΔR150-L151 (domain or fragment, Azotobacter vinelandii, UniProt P30663 1-162, looked up)
chain: MTPANPTLSNEPQAPHAESDELLPEIFRQTVEHAPIAISITDLKANILYANRAFRTITGYGSEEVLGKNESILSNGTTPRLVYQALWGRLAQKKPWSGVLVNRRKDKTLYLAELTVAPVLNEAGETIYYLGMHRDTSELHELEQRVNNQMIEAVVNAAPA
notes: NifL, Azotobacter vinelandii, residues 1-162 with R150-L151 of the linker helix deleted; source: E. coli BL21(DE3)pLysS, purified
binding result [2]: binds

B4: NifL(1-162) ΔN147-L151 (domain or fragment, Azotobacter vinelandii, UniProt P30663 1-162, looked up)
chain: MTPANPTLSNEPQAPHAESDELLPEIFRQTVEHAPIAISITDLKANILYANRAFRTITGYGSEEVLGKNESILSNGTTPRLVYQALWGRLAQKKPWSGVLVNRRKDKTLYLAELTVAPVLNEAGETIYYLGMHRDTSELHELEQRVMIEAVVNAAPA
notes: NifL, Azotobacter vinelandii, residues 1-162 with N147-L151 of the linker helix deleted; also called construct lacking residues N147-L151; source: E. coli BL21(DE3)pLysS, purified
stoichiometry N [3]: 3.6 monomers

B5: NifL PAS1 domain construct, residues 21-140 (domain or fragment, Azotobacter vinelandii, UniProt P30663 21-140, looked up)
chain: ELLPEIFRQTVEHAPIAISITDLKANILYANRAFRTITGYGSEEVLGKNESILSNGTTPRLVYQALWGRLAQKKPWSGVLVNRRKDKTLYLAELTVAPVLNEAGETIYYLGMHRDTSELH
notes: NifL, Azotobacter vinelandii, residues 21-140; also called construct lacking the entire N-terminal extension; source: E. coli BL21(DE3)pLysS, purified; not shown: hexa-histidine-containing tag (26 additional residues, from the vector pETNdeM-11), N-terminal, kept
stoichiometry N [1]: 2

B6: NifL PAS1 construct with the N-terminal region and the C-terminal linker helix, residues 1-162 (domain or fragment, Azotobacter vinelandii, UniProt P30663 1-162, looked up)
chain: MTPANPTLSNEPQAPHAESDELLPEIFRQTVEHAPIAISITDLKANILYANRAFRTITGYGSEEVLGKNESILSNGTTPRLVYQALWGRLAQKKPWSGVLVNRRKDKTLYLAELTVAPVLNEAGETIYYLGMHRDTSELHELEQRVNNQRLMIEAVVNAAPA
notes: NifL, Azotobacter vinelandii, residues 1-162 (PAS1 with both flanking regions); PAS1 carries an FAD cofactor; also called NifL(1-162); 1-162 construct; source: E. coli BL21(DE3)pLysS, purified
stoichiometry N [2]: ~2
stoichiometry N [4]: 2.5 monomers
stoichiometry N [3]: 2.8 monomers

B7: NifL 1-162 PAS1 construct after removal of the first 20 residues (domain or fragment, Azotobacter vinelandii, UniProt P30663 21-162, looked up)
chain: ELLPEIFRQTVEHAPIAISITDLKANILYANRAFRTITGYGSEEVLGKNESILSNGTTPRLVYQALWGRLAQKKPWSGVLVNRRKDKTLYLAELTVAPVLNEAGETIYYLGMHRDTSELHELEQRVNNQRLMIEAVVNAAPA
notes: NifL, Azotobacter vinelandii; the 1-162 construct without its first 20 residues; The limits are worked out from 'removal of the first 20 residues' of the 1-162 construct; source: E. coli BL21(DE3)pLysS, purified
stoichiometry N [4]: 2
